# Test results published in publication PMC9969015.
# Molecular target: S-RBD protein with C-terminal human Fc-tag (receptor-binding domain of SARS-CoV-2 S protein)
# Test: flow cytometry on cells
# Details: 100 μg/ml S-RBD, 1 mM Mn2+, β1-KO 293 T cells, read off a plot
substance,measurement,setting,value
wild-type α4β1 integrin expressed in β1-KO 293 T cells (from UniProt P13612;P05556) β1:D130A,response,parent: est. 1.5,0.95 relative MFI
wild-type α4β7 integrin expressed in β1-KO 293 T cells (from UniProt P13612;P26010) β7:D119A,response,parent: est. 2.0,1.2 relative MFI
wild-type αLβ2 integrin expressed in β1-KO 293 T cells (from UniProt P20701;P05107) αL:D137A,response,parent: est. 1.3,0.97 relative MFI
wild-type α5β1 integrin expressed in β1-KO 293 T cells (from UniProt P08648;P05556) β1:D130A,response,parent: est. 1.2,0.93 relative MFI
